Assay: yeast display, Sf9 membrane polyspecificity reagent, FACS + sequencing; frameworks hold sequencing errors
In short: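 Nanobodies from a synthetic yeast display library (Saccharomyces cerevisiae BJ5465), induced 36–48 hours with galactose, were stained 1 hour at 4 °C with 10% biotinylated, detergent-solubilized Sf9 membrane reagent, enriched on streptavidin microbeads, then FACS-sorted. Anti-HA (expression) and streptavidin (reagent binding) fluorescence set low and high (top ~1%) gates. Polyreactivity labels come from the gate of origin. Genes were colony-PCR amplified, MiSeq 2 × 250 sequenced and filtered by CDR length.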

Sequence	polyreactivity (PSR sort gate)
QVQLVESGGGIVQAGGSLRLSCAASGRIFRIYAMGWYRQAPGKEWELVASISWGGASTYYADSVKGRFTISRDNAKNPVYLQMNSLKPEDTAVYDCAAVGYQGQYDYRSFGSWGQGTQVTVSS	high polyreactivity
QVQLVESGGGLVQAGGSLRLSCAASGRIIDYYTMGWDRQAPGKERELVATITIVGITNYADSVKGRFTISRDNAKNTVYLQMNSLKPEDTAVYYCAADRADFFVIRTIDPYDYWGQGTQVTVSS	low polyreactivity
QDQLVESGGGLVQAGGSLRLSCAASGITFYRNAMGWYRQAPGKERELVAAITSGTRTNYADSVKGRFTISRDNAKNTVYLQMNSLKPEDTAVYYCAKGGRSSSPLYRFEYWGQGTQVTVSS	high polyreactivity
QVQLQESGGGLVQAGCSLRLSCAASGTISVHASMGWYRQAPGKERELVAGITDGANTYYADSVKGRFTISRDNSKNTVYLQMNSLKPEDTAVYYCAAYYGTEVHFTYWGQGTQVTVSS	low polyreactivity
QVQLVESGGGLVQAGGSLRLSCAASGSTFYSNAMGWYRQAPGKERELVASISWSSGSTYYADSVKGRFTISRDNAKNTVYLQMNSLKPDDTAVYYCATDAGGPYRFGYWGQGTQVTVSS	low polyreactivity
QVQLVESGGGLVQAGGSLRLSCAASGRTISRYAMGWYRQAPGKERELVATITSGGSTNYADSVKGRFTISRDNAKNTLYLQMNSLKPEDTAVYYCNAQSWYIVPYDYWGQGTQVTVSS	low polyreactivity
QVQLVESGGGLVQAGGSLRLSCAASGSIFSYYAMGWYRQAPGKERELVASITSGGSTNYADSVKGRFTISRDNAKNTVYLQMNSLKPEDTAVYYCNKDGKYHRVLYDYWGQGTQVTVSS	low polyreactivity
QVQLVESGGGLVQAGGSLRLSCASSGSTFYRYAMGWYRQAPGKERELVARINTGGSTSYAYSVKGRFTISRDNAKNTVYLQKNSLKPVDTAVYYCAASSRYAVFGRYYYWGQGTQVTVSS	high polyreactivity
QVQLVESGGGLVQAGGSLRLSCAASGRIFVYNAMGWYRQAPGKERELVAAITRGCSTYYADSVKGRFTISRDNAKNTVYLQMNSLKPEDTAVYYCASDYQRNDFRWYDYWGQGTQVTVSS	low polyreactivity
QVQLVESGGGLVQAGGSLRLSCAASGYIGNYPMGWYRQAPGKESELVAAITTSGGRTYYADSVKGRFTISRDNAKNTVYVQMNSLKPEDTAVYYCAAPWRLFSLYDYWGQGTQVTVSS	low polyreactivity
QVQLVESGGGLVQAGGSLRLSCAASGSTFGDYAMGGYRQAPGKERELVAANDQNGGSTYYADSVKGRITISRDNAKNTVYLQMNSLIPEDTAVYYCAAESIYDWYDYGGQGTQVTVSS	low polyreactivity
QVQLVESGGGLVQAGGSLRLSCAASGRTFRSNAMGGTTQAPGKERQLVAGITKSGGNTYYADSVKGRFTISRDNAKNTVYLQMTSLKPEDTAVYYCATRYYPLVNYLGYDYWGQGTQVTVSW	low polyreactivity
QVQLVESGGGLVQAGGSLRLSCAASGSIFYLYAMGWYRQAPGKERELVASIRWSGGNTYYADSVKGRFTISRDNAKNTVYLQMNSLKPEDTAVYYCAARTSTHGSSYSIRRFGYWGQGTQVTVSS	high polyreactivity
QVQLQESGAGLVQAGGSLRLCCAASGSIFYVYGMGWYRQAPGKERELVAGINAGTNTNYADSVRGRFTISRDNAKNTVHLQMNSLKPEDTAVYYCAADGNGYQAHEYWGQGTQVTVSS	high polyreactivity
QVQLVESGGGLVQAGGSLRLSCASSGNTFVAYAMGWYRQAPGKERELVAGITRGGTTYYADSVKGRFTISRDNAKNTVYLQMNSLKPEDTAVYYCAARLGYRYNYWGQGTQVTVSS	high polyreactivity
QVQLVESGGGLVQAGGSLRLSCAASGSIFVHNTMGWYRQAPGKERELVAAITRSVGRTYYADSVKGRFTISRDNAKNTVYLQMNSLKPEDTAVYYCAARKNYGSRLSYEYWGQGTQVTVSS	high polyreactivity
QVQLQESGGGLVQAVGSLRLSCAASGNISDYYDMGWYRQAPGKERKIVAGIDFGAITNYADSVKGRFTISRDNAKNTEYLQMSSLKPEDTAVYYCAAGVYDWYAYDYWGQGTQVTVSS	high polyreactivity
QVQLVESGGGLVQAGGSLRLICAASGRTVYRYAMGWYRQAPGKERELVAAITTSGGSTYYADSVKGRFTISRDNAKKTVNIQMNSLKPEDTAVYYCARRVYGYYIPYNYWGKGTQVTVSS	high polyreactivity
QVQLVESGGGLVQAGGSLRLSCAASGRIFPYYAMGWYIQAPGKERELVAAIDGIGDTTYYADSVKGRFTISRDNAKNTVYLQMNSLKPEDTAVYYCNADGDAYYWGSYDEEDYWGQGTQVTVSS	low polyreactivity
QVQLVDSGGGLVQAGGSLRLSCAASGSIFAGYTMGGYRQAPGKEREFVAAISSSGGSTYYADSVKGRFTISRDNAKNTVYLQMNSLKPEDTAVSYCAVRGRISSVSRYGYWGQGTQVTVSS	high polyreactivity
QVQLVESGGGLVQAGGSLRLSCAASGSTFKFYAMGWYRQAPGKERELVASITSSSGPTYYADSVKGRFTISRDNAKNTVYLQLNSLKPEDTAVDYCAKRPIRYYHLLRGNYWGQGTQVTVSS	low polyreactivity
QVQLQESGGGLVQAGGILRLSCAASGTISDRAGMGWYREAPAKNAIGATIDRGTNTNYADSVKGRFTISRDNAKNTVYLQMNSLKREDTAVYNCAADGRYYIYLDYWGQGTQVTVSS	low polyreactivity

Sequence	polyreactivity (PSR sort gate)
QFQLVESGGGLVQAGGSLRLSCAASGGTFGWNAMGLYRQAPGKERELVAAITSSGGDTYYADSVKGRFTISRDNAKNTVYLQMNSLKPEDTAVYYCAAEDGRQYGYWGQGTQVTVSS	low polyreactivity
QVQLDESGGGLVQAGGSLRLRCAASGFIFVSYAMGWYRQAPGKERELVAAISRGGGSTYYADSVKGRFTISRDNAKNTVYLQMNSLKPEDTAVYYCAAGRFYIDDYWGQGTQVTVSS	high polyreactivity
QVQLVETGGGLVQAAGSLRLSSAASGSTFLANTMGWYRQEPGKEREFVAAITRRGGSTYYADSVKGRFTISRDNAKNTVYLQMNSLKPEDTAVYYCNADWYFQYPYDYWGQGTQVTVSS	low polyreactivity
QVQLVESGGGLVQAGGSLRLSCAASGSIFDLYAMGWYRQAPGKERELVAGISYSGGSTYYADSVKGRFTISRDNAKNTVYLQMNSLKPEDTAVYYCAADDSYWYDNYIDEAAANTFDYWGQGTQVTVSS	low polyreactivity
QVQLVESGGGLVQAGGSLRLSCAASGSIFYFNAMGWYRQAPGKERELVADISGSGGSTYYADSVKGRFTISRDNAKNTVYLQMNSLKPEDTAVYYCAARLYLHSWWYYAYDYWGQGTQVTVSS	high polyreactivity
QVQLVESGGGLVQAGGSLRLSCAASGSTFAFNAMGWYRPAPGKERELVASISGSGSSTYYADSVKGRFTISRDNAKNTVYLQMNSLKPEDTAVYYCAARVGARVSPPRRHGRFNYWGQGTQVTVSS	high polyreactivity
QVQLVESGGGLVQAGGSLRLSCAASGFIFDRYAMGWYRQAPGKERELVAAISSGGSTYYADSVKGRFTISRDNAKNTVYLQMNSLKPEDTAVYYCAAESWLNFIYEYDYWGQGTQVTVSS	low polyreactivity
QVQLVESGGGLVQAGGSLRLSCAASGRIFRYYAMGWYRQAPGKERELVAAISSGGRTYYADSVKGRFTISRDNAKNTVYLQMNSLKPEDTAVYYCNAYAYHAGGDYWGQGTQVTVSS	high polyreactivity
QVQLVESGGGLVQAGGSLRLSCAASGIIFRYYAMGWYRQPPGKERELVASISRGGSTYYADSVKGRFTISRDNAKNTVYLQMNSLKPEDTAVYYCAADVYPVYLYGYEYWGQGTQVTVSS	high polyreactivity
QVQLVESGGGLVQAGGSLRLSCAASGSIFSIYAMGWYRQAPWKERELVAAITWGGGSTYYADSVKGRFTISRDNAKNTVYVQMNSLKPEDTAVYYCAADSLTWYGTYYYWGQGTQVTVSS	high polyreactivity
QVQLVESGGGLVQAGGSLRLSCAASGRIFTRYAMGWYCQAPGNDRELVAVIRDGSTYYADSVKGRFTISRDNGKNTVYLQMNSLKPEDTAVYYCRYDIWDWWSGAYDYWGQGTQVTVSS	low polyreactivity
QVQLVESGGGLVQAGGSLRLSCAGSGRTFWANTMGWYIQAPGKEREFVAAISGRDVSTYYADSVKGRFTISRDNAKNTVFLQMNSLKPEDTAVYYCAAQWQYLGHMGYWGQGTQVTVSS	low polyreactivity
QVQLVESGGGLVQAGGSLRLSCAASGSTFILNAMGSYRQAPGKERELVAAISLSGGSTYYADSVKGRFTISRDNAKNTVYLQMNSQKPEDTAVYYCAAEQWYDNYLEYDYWGQGTQVTLSS	high polyreactivity
QVQLVESGGGLVQAGGSLRLSCAASGSIFETYAMGWYRQAPGKEWELVAAISRTSGRTYYADSVKGRFTISRDNAKNTVYLQMNSLKPDDTAVYYCAAVVRNPGTYDYWGHGTQVTVSS	high polyreactivity
QVQLVESGGGLVQAGGSLRLSCAASGSTLYTYAMGWYRPAPGKERELVAAIRLSGGRTYYADSVKGRFTISRDNAKNTVYLQMNSLKPEDTAVYYCAVDWSYSRYDYWGQGTQVTVSS	high polyreactivity
QVQLVESGGGLVQAGGSLRLSCAASGRIFYGYAMGWYRQAPGKERELVAAITSRGTSTYYADSVKGRFTISRDTAKNTVYLQMNSLKPEDTAVYYCNAAYGRSFYSKVFSYNYWGQGTQVTVSS	high polyreactivity
QVQLVESGGGLVQAGGSLRLSCAASGFIFRRNAMGWSRQAPRKERELVAAISSRGGTTYYADSVKGRFTISRDNAKNTVYLQMNSLKPEDTAVYYCNAVKFGATAYDYWGQGTQVTVSS	high polyreactivity
QVQLVESGGGLVQAGGSLRLSCAASGNTFGDYAMGWYRQAPGKERELVAAISRSGGSTSYADSVKGRFTISRDNAKNTVYLQMNSLKPEDTAVYYCAAYWQRFGYDYWGQGTQVTVSS	low polyreactivity
QVQLVESGGGLVQAGGSLRLSCAASGFTFKYYAMGWYRQAPGKERELVAAISSGVSTNYADSVKGRFTISRDNAKNTVYLQMNSLKPEDTAVYYCNAEVFWWDQWYDYWGQGTQVTVSS	high polyreactivity
QVQLVESVGGLVQAGGSLRLSCAASGRIFYLYAMGWYRQEPGKERELVAVISYGGDRTSYADSVKGRFTISRDNAKNTVYLQMNSLKPEDTAVYYCAARPFYRGYYYWGQGTQVTVSS	high polyreactivity
QVQLVESGGGLVQAGGSLPLSCAASGSIFSKYTMGWYRQAPGKERELDAAISRAGSTYYADSVKGRFTISRDNAKNSVYLQMNSLKPEDTAVYYCNARYRGVYPLIGIRRDYYYWGQGTQVTVSS	high polyreactivity

From the nanobody polyreactivity screen of Harvey et al. (2022)
